From US8889620B2, “Pharmaceutical compositions comprising peptide antagonists of vascular endothelial growth factor” (Children's Medical Center Corporation, priority 1997, dated 2014)
Where no end group is shown, it is not given here.

Key:
VEGF165R [1] = biological target: T1, VEGF165R (Homo sapiens, UniProt O14786); assay: Cross-linking of 125I-VEGF165 to VEGF165R on HUVEC; type: binding; design: HUVEC, which express both KDR/Flk-1 and VEGF165R; endogenous in cells; host or cells: HUVEC (ATCC); conditions: 15 ug/ml fusion protein, FIG. 4 lane 2
T1 sequence (O14786 22-923): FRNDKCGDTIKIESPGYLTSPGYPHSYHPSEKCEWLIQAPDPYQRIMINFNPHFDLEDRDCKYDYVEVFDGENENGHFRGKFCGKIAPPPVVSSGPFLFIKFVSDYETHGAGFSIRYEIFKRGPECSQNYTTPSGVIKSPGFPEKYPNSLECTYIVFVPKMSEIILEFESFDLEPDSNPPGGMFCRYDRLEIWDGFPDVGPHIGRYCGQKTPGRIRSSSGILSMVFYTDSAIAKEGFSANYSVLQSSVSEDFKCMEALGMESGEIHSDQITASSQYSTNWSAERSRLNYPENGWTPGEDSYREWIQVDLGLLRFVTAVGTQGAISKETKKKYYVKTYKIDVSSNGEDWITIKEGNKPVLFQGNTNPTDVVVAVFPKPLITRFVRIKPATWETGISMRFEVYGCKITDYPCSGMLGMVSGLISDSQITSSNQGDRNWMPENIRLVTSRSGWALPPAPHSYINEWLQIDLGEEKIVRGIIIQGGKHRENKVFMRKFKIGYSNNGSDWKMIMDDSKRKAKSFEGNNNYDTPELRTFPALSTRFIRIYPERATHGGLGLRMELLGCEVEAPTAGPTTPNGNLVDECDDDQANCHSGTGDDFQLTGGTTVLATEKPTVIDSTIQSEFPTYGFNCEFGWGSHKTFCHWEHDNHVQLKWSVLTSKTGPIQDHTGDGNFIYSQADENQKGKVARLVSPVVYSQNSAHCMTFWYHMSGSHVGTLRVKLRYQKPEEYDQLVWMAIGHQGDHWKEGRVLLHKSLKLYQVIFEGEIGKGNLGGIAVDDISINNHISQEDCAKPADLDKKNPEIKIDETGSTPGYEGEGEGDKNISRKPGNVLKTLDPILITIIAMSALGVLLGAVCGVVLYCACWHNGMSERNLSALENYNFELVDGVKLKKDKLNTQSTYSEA
Description: (§1) FIG. 4. GST-EX 7+8 fusion protein inhibits cross-linking of ^125I-VEGF165 to ^125I-VEGF165R and to KDR/Flk-1. ^125I-VEGF165 (5 ng/ml) was bound to subconfluent cultures of HUVEC (lanes 1 and 2) and MDA-MB-23 1 cells (lanes 3 and 4) in 6-cm dishes. The binding was carried out in the presence (lanes 2 and 4) or the absence (lanes 1 and 3) of 15 ug/ml GST-Ex 7+8. Heparin (1 ug/ml) was added to each dish. At the end of a 2-h incubation, ^125I-VEGF165 was chemically cross-linked to the cell surface. The cells were lysed, and proteins were resolved by 6% SDS-PAGE. The gel was dried and exposed to x-ray film.
(§2) Binding and cross-linking experiments using 125I-VEGF165 and 125I-VEGF121 were performed at described previously (Gitay-Goren, et al., J. Biol. Chem., 287, 6003-6096 (1992), Soker, et al., J: Biol. Chem., 271,5761-5767 (1996)). VEGF binding was quantified by measuring the cell-associated radioactivity in a y-counter (Beckman, Gamma 5500). The counts represent the average of three walls. All experiments were repeated at least three times, and similar results were obtained. 125I-VEGF cross-linked complexes were resolved by 6% SDS-PAGE, and the gels were exposed to a phosphor screen and scanned after 24 h by a PhosphorImager (Molecular Dynamics). Subsequently, the gels were exposed to x-ray film.

VEGF165R [2] = biological target: T1, VEGF165R; assay: Cross-linking of 125I-VEGF165 to VEGF165R on 231 cells; type: binding; design: to 231 cells which express only VEGF165R; endogenous in cells; host or cells: MDA-MB-231 (ATCC); conditions: 15 ug/ml fusion protein, FIG. 4 lane 4
Description: as §1, §2

- formation of 165-175-kDa 125I-VEGF165/VEGF165R cross-linked complexes on HUVEC (in words) (VEGF165R [1]): markedly inhibited
- formation of 125I-VEGF165/VEGF165R cross-linked complexes on 231 cells (in words) (VEGF165R [2]): markedly inhibited
Substance: GST-Ex 7+8: GST fusion protein containing the peptide encoded by VEGF165 exons 7 and 8 (PCGPCSERRKHLFVQDPQTCKCSCKNTDSRCKARQLELNERTCRCDKPRR; cysteine pairing not given here; also: GST fusion protein, side of fusion not given here)
